# Values quoted from earlier work in patent US20170037111A1, “Novel peptides and combination of peptides for use in immunotherapy against ovarian cancer and other cancers” (immatics biotechnologies GmbH, priority 2015, published 2017).
# Test system: ovarian cancer
# Conditions: clinical studies, phase as stated
molecule,measurement,value
"abagovomab: anti-CA-125 antibody (antibody, chains of the INN, looked up, V domains shown) VH: QVKLQESGAELARPGASVKLSCKASGYTFTNYWMQWVKQRPGQGLDWIGAIYPGDGNTRYTHKFKGKATLTADKSSSTAYMQLSSLASEDSGVYYCARGEGNYAWFAYWGQGTTVTVSS VL: DIELTQSPASLSASVGETVTITCQASENIYSYLAWHQQKQGKSPQLLVYNAKTLAGGVSSRFSGSGSGTHFSLKIKSLQPEDFGIYYCQHHYGILPTFGGGTKLEIK",clinical effect in ovarian cancer patients,promising results
